# Source: patent publication US20210246451, “APTAMER FOR ADAMTS5 AND USE FOR APTAMER FOR ADAMTS5” (RIBOMIC INC., published 2021)
# T1: ADAMTS5 (UniProt Q9UNA0 Q9UNA0:262-622)
# T1 sequence: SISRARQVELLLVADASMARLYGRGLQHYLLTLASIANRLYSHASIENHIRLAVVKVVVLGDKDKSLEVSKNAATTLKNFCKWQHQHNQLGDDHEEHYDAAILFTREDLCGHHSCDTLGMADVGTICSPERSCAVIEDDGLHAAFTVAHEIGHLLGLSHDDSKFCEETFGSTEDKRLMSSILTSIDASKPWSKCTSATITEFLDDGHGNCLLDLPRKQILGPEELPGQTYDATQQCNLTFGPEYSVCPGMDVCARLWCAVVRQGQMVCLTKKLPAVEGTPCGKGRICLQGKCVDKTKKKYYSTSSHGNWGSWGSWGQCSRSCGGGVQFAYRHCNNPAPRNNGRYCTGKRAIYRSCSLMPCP
# Target: T1, ADAMTS5
# Test: SPR; RU ratio >=40%
# Conditions: tags: R&D Systems
row,Binder,binding result
1,"GGGUAUUGGGGCCUCCACGCUAGAAGGCUGGACUAAACCAACUCGA (ssRNA, 2'-F pyrimidines) [SEQ ID NO: 38]",binds
2,"GGGUAUUGGGGCCUCCACAAUAGAUAAAUGGACUAAACCAACUCGA (ssRNA, 2'-F pyrimidines) [SEQ ID NO: 30]",binds
3,"GGGUAUUGGGGCCUCCACAGUAAAUUCUUGGACUAAACCAACUCGA (ssRNA, 2'-F pyrimidines) [SEQ ID NO: 37]",binds
4,"GGGUAUUGGGGCCUCCACAGUUGAAGCUUGGACUAAACCAAUCUCGA (ssRNA, 2'-F pyrimidines) [SEQ ID NO: 31]",binds
5,"GGGUAUUGGGGCCUCCACAGCCGAGGCUUGGACUAAACCAAUCUCGA (ssRNA, 2'-F pyrimidines) [SEQ ID NO: 33]",binds
6,"GGGUAUUGGGGCCUCCACAGAAAAAUCUUGGACUAAACCAAUCUCGA (ssRNA, 2'-F pyrimidines) [SEQ ID NO: 32]",binds
7,"GGGUAUUGGGGCCUCCACAGAAAAAACUUGGACUAAACCAACUCGA (ssRNA, 2'-F pyrimidines) [SEQ ID NO: 34]",binds
8,"GGGUAUUGGGGCCUCCACAGUAAGCACUUGGACUAAACCAGCUCGA (ssRNA, 2'-F pyrimidines) [SEQ ID NO: 35]",binds
9,"GGGUAUUGGGGCCUCCACAGUUUAAACUUGGACUAAACCAACUCGA (ssRNA, 2'-F pyrimidines) [SEQ ID NO: 36]",binds

# Target: T1, ADAMTS5
# Test: inhibition; 10 nM
# Conditions: tags: R&D Systems
# Protocol: Whether an aptamer having the nucleotide sequence shown in SEQ ID NO: 1 inhibits the enzyme activity of ADAMTS5 was evaluated by the following method. As a substrate of ADAMTS5, the G1-IGD-G2 domain of aggrecan (manufactured by R&D systems) was used. ADAMTS5 specifically cleaves in between the 392nd glutamic acid and the 393rd alanine in the G1-IGD-G2 domain and produces two fragments. These fragments have faster electrophoretic mobility than uncleaved G1-IGD-G2. Thus, the enzyme activity of ADAMTS5 can be measured by quantifying the band intensity of G1-IGD-G2 by SDS-PAGE electrophoresis. The assay was performed in a solution A buffer with a reaction mixture volume of 10 μL. First, a mixture (10 μL) of a nucleic acid and ADAMTS5 was prepared and incubated at 25° C. for 15 min. To a substrate solution (5 μL) diluted with solution A was added a mixture (5 μL) of the nucleic acid and ADAMTS5 to start the enzyme reaction. The final concentration of ADAMTS5 in the reaction solution was 5 nM, and the final substrate concentration was 50 μg/mL. The reaction solution was incubated at 37° C. for 2 hr, 2 μL of solution D was added, and the mixture was heated at 95° C. for 2 min to stop the enzyme reaction of ADAMTS5. Solution D contains 0.25 M tris (pH 6.8), 10% SDS, 50% glycerol, 0.25% bromo phenolblue, and 20% 2-mercaptoethanol. The heat-treated reaction solution was electrophoresed by 7.5% SDS-PAGE and stained with SYPRO Orange (manufactured by Sigma-Aldrich). The staining was performed according to the manual of Sigma-Aldrich and detected using STORM840 manufactured by GE Healthcare. […] The amount of uncleaved substrate in each reaction solution was quantified from the band intensity and the standard curve. The substrate cleavage efficiency of ADAMTS5 under these reaction conditions was 80-100%. The inhibition rate of the test substance was calculated using the following equation.
# The aptamers having the sequences shown in SEQ ID NOs: 10(1)-10(8) and 11(1)-11(35), SEQ ID NO: 13-15 were all produced by chemical synthesis.
row,Binder,activity
1,"AUUGGGGCCUCCACAGCUGCUCAGCUUGGACUAAACCAAU (ssRNA, as SEQ 10 plus 2'-OMe at C8) [10(1)]",41.3 % inhibition
2,"AUUGGGGCCUCCACAGCUGCUCAGCUUGGACUAAACCAAU (ssRNA, as SEQ 10 plus 2'-OMe at U27) [10(6)]",61.8 % inhibition
3,"AUUGGGGCCUCCACAGCUGCUCAGCUUGGACUAAACCAAU (ssRNA, as SEQ 10 plus 2'-OMe at U32) [10(8)]",12.8 % inhibition
4,"AUUGGGGCCUCCACAGCUGCUCAGCUUGGACUAAACCAAU (ssRNA, as SEQ 10 plus 2'-OMe at C12) [10(5)]",8.5 % inhibition
5,"AUUGGGGCCUCCACAGCUGCUCAGCUUGGACUAAACCAAU (ssRNA, as SEQ 10 plus 2'-OMe at C9) [10(2)]",12.6 % inhibition
6,"AUUGGGGCCUCCACAGCUGCUCAGCUUGGACUAAACCAAU (ssRNA, as SEQ 10 plus 2'-OMe at C11) [10(4)]",3.6 % inhibition
7,"AUUGGGGCCUCCACAGCUGCUCAGCUUGGACUAAACCAAU (ssRNA, as SEQ 10 plus 2'-OMe at U10) [10(3)]",2 % inhibition
8,"AUUGGGGCCUCCACAGCUGCUCAGCUUGGACUAAACCAAU (ssRNA, as SEQ 10 plus 2'-OMe at C31) [10(7)]",10.4 % inhibition
9,"AUUGGGGCCUCCACAGCGCUCGCUUGGACUAAACCAAU (ssRNA, 2'-OMe at 1-5,15-26,32-38; 2'-F other pyrimidines) [11(1)]",62.8 % inhibition
10,"AUUGGGGCCUCCACAGCGCUCGCUUGGACUAAACCAAU (ssRNA, as 11(1) with 5' 40 kDa branched PEG and 3' idT) [11(33)]",55.5 % inhibition
11,"AUUGGGGCCUCCACAGCGCUCGCUUGGACUAAACCAAU (ssRNA, as 11(1) with PS between 8 and 9) [11(19)]",81.1 % inhibition
12,"AUUGGGGCCUCCACAGCGCUCGCUUGGACUAAACCAAU (mixed, as 11(1) with dC at 8) [11(4)]",50.9 % inhibition
13,"AUUGGGGCCUCCACAGCGCUCGCUUGGACUAAACCAAU (ssRNA, as 11(1) with PS between 7 and 8) [11(18)]",60.3 % inhibition
14,"AUUGGGGCCUCCACAGCGCUCGCUUGGACUAAACCAAU (mixed, as 11(1) with dT at 10) [11(6)]",9.2 % inhibition
15,"AUUGGGGCCUCCACAGCGCUCGCUUGGACUAAACCAAU (mixed, as 11(1) with dG at 6) [11(2)]",60.6 % inhibition
16,"AUUGGGGCCUCCACAGCGCUCGCUUGGACUAAACCAAU (mixed, as 11(1) with dC at 14) [11(9)]",60.8 % inhibition
17,"AUUGGGGCCUCCACAGCGCUCGCUUGGACUAAACCAAU (mixed, as 11(1) with dA at 28) [11(11)]",32 % inhibition
18,"AUUGGGGCCUCCACAGCGCUCGCUUGGACUAAACCAAU (mixed, as 11(1) with dA at 31) [11(14)]",45.1 % inhibition

row,Binder,activity
1,"AUUGGGGCCUCCACAGCGCUCGCUUGGACUAAACCAAU (mixed, as 11(1) with dG at 7) [11(3)]",19.5 % inhibition
2,"AUUGGGGCCUCCACAGCGCUCGCUUGGACUAAACCAAU (ssRNA, as 11(1) with PS between 9 and 10) [11(20)]",74.7 % inhibition
3,"AUUGGGGCCUCCACAGCGCUCGCUUGGACUAAACCAAU (mixed, as 11(1) with dC at 9) [11(5)]",34.2 % inhibition
4,"AUUGGGGCCUCCACAGCGCUCGCUUGGACUAAACCAAU (mixed, as 11(1) with dC at 11) [11(7)]",23 % inhibition
5,"AUUGGGGCCUCCACAGCGCUCGCUUGGACUAAACCAAU (ssRNA, as 11(1) with PS between 14 and 15) [11(25)]",76.4 % inhibition
6,"AUUGGGGCCUCCACAGCGCUCGCUUGGACUAAACCAAU (mixed, as 11(1) with dA at 13) [11(15)]",50.4 % inhibition
7,"AUUGGGGCCUCCACAGCGCUCGCUUGGACUAAACCAAU (ssRNA, as 11(1) with PS between 8-9, 9-10, 10-11, 14-15; 3' idT) [11(32)]",58.8 % inhibition
8,"GCUGGGGCCUCCACAGCGCUCGCUUGGACUAAACCAGC (ssRNA, 2'-OMe at 1-5,15-26,32-38; 2'-F other pyrimidines) [SEQ ID NO: 13]",58.4 % inhibition
9,"AUUGGGGCCUCCACAGCGCUCGCUUGGACUAAACCAAU (ssRNA, as 11(1) with PS between 5 and 6) [11(16)]",50.9 % inhibition
10,"AUUGGGGCCUCCACAGCUUCGGCUUGGACUAAACCAAU (ssRNA, 2'-OMe at 1-5,15-26,32-38; 2'-F other pyrimidines) [SEQ ID NO: 14]",60.5 % inhibition
11,"AUUGGGGCCUCCACAGCGCUCGCUUGGACUAAACCAAU (ssRNA, as 11(1) with PS between 10 and 11) [11(21)]",80.3 % inhibition
12,"AUUGGGGCCUCCACAGCGCUCGCUUGGACUAAACCAAU (ssRNA, as 11(1) with PS between 30 and 31) [11(30)]",38.3 % inhibition
13,"AUUGGGGCCUCCACAGCGCUCGCUUGGACUAAACCAAU (ssRNA, as 11(1) with PS between 6 and 7) [11(17)]",70 % inhibition
14,"AUUGGGGCCUCCACAGCGCUCGCUUGGACUAAACCAAU (mixed, as 11(1) with dC at 29) [11(12)]",62.5 % inhibition
15,"AUUGGGGCCUCCACAGCGCUCGCUUGGACUAAACCAAU (mixed, as 11(1) with dC at 12) [11(8)]",43.2 % inhibition
16,"AUUGGGGCCUCCACAGCGCUCGCUUGGACUAAACCAAU (mixed, as 11(1) with dT at 30) [11(13)]",20.3 % inhibition
17,"AUUGGGGCCUCCACAGCGCUCGCUUGGACUAAACCAAU (mixed, as 11(1) with dG at 27) [11(10)]",59.1 % inhibition
